Assay results reported in publication PMC3298681 (Molecular Cell, 2011).

Biological target: the molecule itself

B1: DgcB (CC1850), purified (enzyme, Caulobacter crescentus, UniProt Q9A776 1-353, looked up)
chain: MSDVETTLRGPEAYKIASRALELMERHQVWPTALNFELWTHYVADPNGALARELTRLISLGEPMTELVSEELAATFLPKARLNEQIRDAGDILSKELEAVSKAIQNAQKSNAAFGQELAGASKSLDTHTDVASIKAVVGSIAEATRRVHKENQSLEARLADSTAEVERLREHLEQVRRDATTDGLTNLANRKAFDDELDRACAEAEEGGTTICLAVLDIDHFKGFNDTWGHQTGDQVIRYVASVIGRVAAPPRFAARYGGEEFAMIFPREAASVVATTLEEIRVEVSSRMLKRRSTNEDLGAITVSSGFAERKPGESGHSVMERADAALYASKRGGRNRVTAAESMPGAANAA
stoichiometry N: 2
